The text below walks through data of patent US20040241164A1 (published 2004).

The assay has as its target T1, Soluble Aβ 1-40 (UniProt P05067 672-711).
T1 construct: domain: Aβ 1-40; Unaggregated, predominantly monomeric peptide flowed over captured antibody; The numbers 1-40 count on the Aβ peptide, not on the APP precursor
In words: BIAcore SPR, alternate method: antibody captured on protein A or A/G, Aβ 1-40 in flow, 5 hour dissociation, 1:1 model with mass transfer; alternate method: antibody captured on protein A or A/G, 5 hour dissociation.

Procedure: Protein A or protein A/G is immobilized via amine coupling to flow cells 1 and 2 of a B1 or CM5 sensor chip (BIAcore). The test antibody is then captured in flow cell 2 at desired levels (usually a 10-60 second injection of antibody) and 5 minutes is allowed for the antibody to stabilize. […] Each concentration is injected over the surface for 5 minutes at a flow rate of 50 μL/min. […] Aβ 1-40 and antibody are then eluted from both flow cells with a 40 second injection of glycine (pH 1.5). The signal is allowed to stabilize for 2 minutes before the next cycle. The data from flow cell 1 is subtracted from flow cell 2 to account for any bulk shifts due to buffer differences or non-specific binding to the sensor chip or protein A. The various concentrations are injected randomly and each concentration is run in duplicate. Two 0 nM runs are used to control for any dissociation of antibody from the protein A or A/G capture surface. The data is analyzed using the Biaevalution software. A 1:1 model with mass transfer and a local Rmax is used as the best fit for the data.

B1: humanized 266 antibody (antibody, human IgG1, kappa, V domains shown)
VH: EVQLVESGGGLVQPGGSLRLSCAASGFTFSRYSMSWVRQAPGKGLELVAQINSVGNSTYYPDTVKGRFTISRDNAKNTLYLQMNSLRAEDTAVYYCASGDYWGQGTLVTVSS
VL: DVVMTQSPLSLPVTLGQPASISCRSSQSLIYSDGNAYLHWFLQKPGQSPRLLIYKVSNRFSGVPDRFSGSGSGTDFTLKISRVEAEDVGVYYCSQSTHVPWTFGQGTKVEIKR
As for B1, the Kd (usually the equilibrium constant for the complex coming apart) stood at 0.4 nM.
